The assay addresses human CD33 protein (R&D Systems) (Homo sapiens, UniProt P20138). Put plainly: SPR. In general terms: Surface plasmon resonance follows binding to a sensor surface in real time, without labels.

Substitutions are numbered along the chain they refer to. Names and notes keep the numbering of the source.

human CD33 protein (R&D Systems), sequence (P20138 18-259): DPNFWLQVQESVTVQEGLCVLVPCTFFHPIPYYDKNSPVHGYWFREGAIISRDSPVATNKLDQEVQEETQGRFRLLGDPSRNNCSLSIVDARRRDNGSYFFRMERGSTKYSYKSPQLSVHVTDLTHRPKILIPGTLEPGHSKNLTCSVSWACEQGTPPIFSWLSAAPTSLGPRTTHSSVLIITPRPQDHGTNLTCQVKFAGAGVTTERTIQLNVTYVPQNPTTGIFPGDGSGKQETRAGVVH

B1: anti-CD33 antibody variant S11 (antibody, V domains shown)
VH: QVQLVQSGAEVKKPGSSVKVSCKASGGIFSNHRISWVRQAPGQGLEWMGGIIPIFGTANYAQKFQGRVTITADESTSTAFMELSSLRSEDTAVYYCARAWADVFDIWGQGTMVTVSS
VL: EIVLTQSPLSLPVTPGEPASISCRSSQSLLHSNGYNYLDWYLQKPGQSPQLLIYLGVNSVSGVPDRFSGSGSGTDFTLKISRVEAEDVGVYYCMQALQTPWTFGQGTKVEIK
Turning to B1, the “fold reduction in binding affinity (KD) against the lead candidate” value came to 1.4 fold.

B2: anti-CD33 antibody W96F (antibody, V domains shown)
VH: B1 VH with R33A, A99E, W100F
VL: B1 VL
Consider B2, for which the binding result is listed as “no binding” and the “fold loss of binding affinity against the parent antibody” value was over 1000 fold.

Values taken from publication doi:10.1101/2025.06.29.662139 (bioRxiv, 2025).
